From patent US20140087995A1 (published 2014)
Numbered stars: 1 amine (or outer) side, 2 acyl side, 3 side chain; on linkers, the order of the positions; unused ones are H or OH. Bridge positions count the residues as written; N and C are the ends. Side chains are listed from the residue outwards. Ends that are not written are not given here. * marks the point of attachment. C20 diacid = O=C(O)CCCCCCCCCCCCCCCCCCC(=O)*; γGlu = O=C(O)[C@H](CCC(=O)[*:2])N[*:1]; AEEA = NCCOCCOCC(=O)O

Key:
[1] = molecular target: T1, human calcitonin receptor (human, UniProt P30988 25-474); test: cell-based or functional assay
T1 sequence (looked up): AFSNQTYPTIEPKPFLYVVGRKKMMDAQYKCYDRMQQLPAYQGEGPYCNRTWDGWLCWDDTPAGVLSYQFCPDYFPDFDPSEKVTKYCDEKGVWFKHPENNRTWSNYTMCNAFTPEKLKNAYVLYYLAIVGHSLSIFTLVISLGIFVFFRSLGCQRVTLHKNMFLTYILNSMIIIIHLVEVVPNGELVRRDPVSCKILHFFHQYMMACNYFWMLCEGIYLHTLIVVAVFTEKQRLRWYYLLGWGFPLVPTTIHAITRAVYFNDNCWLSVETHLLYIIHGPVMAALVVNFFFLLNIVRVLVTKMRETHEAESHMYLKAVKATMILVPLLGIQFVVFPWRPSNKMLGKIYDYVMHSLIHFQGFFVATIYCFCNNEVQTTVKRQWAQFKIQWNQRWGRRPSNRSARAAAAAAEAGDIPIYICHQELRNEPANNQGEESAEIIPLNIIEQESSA

[2] = molecular target: T2, human amylin receptor (amylin 3(a) receptor: human calcitonin receptor with RAMP-3) (human, UniProt P30988 25-474; O60896 24-148); test: SPA competition on BHK cell membranes, 125I-rat amylin as radioligand (Assay V)
T2 construct: whole, on cells; Used as cell membranes of the Amylin 3(a)/CRE-luc BHK cells; the species of RAMP-3 is only implied by the name human amylin receptor; also called hAmylin-R; hAmylinR
T2 sequence (looked up) 1: T1 sequence (looked up)
T2 sequence (looked up) 2: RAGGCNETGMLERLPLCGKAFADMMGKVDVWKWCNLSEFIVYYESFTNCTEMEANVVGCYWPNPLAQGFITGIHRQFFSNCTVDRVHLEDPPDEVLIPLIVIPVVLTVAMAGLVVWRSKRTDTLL
Description: The binding assay was performed using scintillation proximity assay (SPA) beads (RPNQ0001) from PerkinElmer and cell membranes from the Amylin 3(a)/CRE-luc cells (as described in Assay (II)) were used. Membranes were prepared in the following way; the cells were rinsed with PBS and incubated with Versene for approximately 5 min before harvesting. The cells were flushed with PBS and the cell-suspension was centrifuged for 5 min at 1000 rpm. Cells were homogenized (ultrathurrax) in a buffer containing 20 mM Na-HEPES and 10 mM EDTA (pH 7.4) and centrifuged at 20.000 rpm for 15 min. The resulting pellet was resuspended, homogenized and centrifuged (20.000 rpm, 15 min) in a buffer containing 20 mM Na-HEPES and 0.1 mM EDTA (pH 7.4, buffer 2). The resulting pellet was resuspended in buffer 2 and protein concentration was measured (BCA protein Assay, Pierce). The homogenate was kept cold during the whole procedure. The membranes were kept at −80° C. until use. The assay was performed in a 384 well Optiplate (PerkinElmer) in a total volume of 40 ul. Membranes were mixed with SPA beads. Final concentration of membranes 35 ng/μL final and SPA beads was 0.05 mg/well. Test-compounds were dissolved in DMSO and further diluted in assay buffer (50 mM Hepes, pH 7.4, 1 mM CaCl2, 5 mM MgCl₂, 0.1% OA and 0.02% Tween20). […] The final mixture was incubated with shaking at 400 rpm for 120 min at 25° C. prior to centrifugation (1500 rpm, 10 min). Samples were analyzed on TopCounter™ (Packard). The IC₅₀ was calculated using (one site binding competition analysis) GraphPad Prism5 as a measure of receptor affinity.

[3] = molecular target: T3, human calcitonin receptor (human, UniProt P30988 25-474); test: SPA competition on BHK cell membranes, 125I-calcitonin as radioligand (Assay VII)
T3 construct: whole, on cells; Used as cell membranes; also called hCTR; hCT
T3 sequence (looked up): T1 sequence (looked up)
In short: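 BHK hCTR membranes 35 ng/μL + SPA beads 0.05 mg/well; buffer 50 mM Hepes pH 7.4, 1 mM CaCl2, 5 mM MgCl₂, 0.1% OA, 0.02% Tween20. 120 min, 25° C., shaking. Scintillation count; IC50 by one-site binding competition.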

[4] = molecular target: T3, human calcitonin receptor; test: ratio of hCTR IC50 to hAmylin-R IC50 (reference: human amylin receptor)
In short: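 IC₅₀ values were derived by one-site competition analysis of SPA counts. Cell membranes (35 ng/μL) with SPA beads were incubated with test compounds for 120 min at 25° C in Hepes buffer, pH 7.4, containing CaCl2, MgCl₂, OA and Tween20.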

B1: N^ε1-[(4S)-4-carboxy-4-[[(4S)-4-carboxy-4-(19-carboxynonadecanoylamino)butanoyl]amino]butanoyl]-[Glu14,Arg17,Pro21,Pro27,His34]-h-amylin (peptide)
peptide: K([γGlu-γGlu-C20 diacid])CNTATCATQRLAEFLRHSSPNFGAIPSSTNVGHNTY-NH2
modifications: disulfide 2-7; N-terminus assumed
SMILES: CC[C@H](C)[C@H](NC(=O)[C@H](C)NC(=O)CNC(=O)[C@H](Cc1ccccc1)NC(=O)[C@H](CC(N)=O)NC(=O)[C@@H]1CCCN1C(=O)[C@H](CO)NC(=O)[C@H](CO)NC(=O)[C@H](Cc1c[nH]cn1)NC(=O)[C@H](CCCNC(=N)N)NC(=O)[C@H](CC(C)C)NC(=O)[C@H](Cc1ccccc1)NC(=O)[C@H](CCC(=O)O)NC(=O)[C@H](C)NC(=O)[C@H](CC(C)C)NC(=O)[C@H](CCCNC(=N)N)NC(=O)[C@H](CCC(N)=O)NC(=O)[C@@H](NC(=O)[C@H](C)NC(=O)[C@@H]1CSSC[C@H](NC(=O)[C@@H](N)CCCCNC(=O)CC[C@H](NC(=O)CC[C@H](NC(=O)CCCCCCCCCCCCCCCCCCC(=O)O)C(=O)O)C(=O)O)C(=O)N[C@@H](CC(N)=O)C(=O)N[C@@H]([C@@H](C)O)C(=O)N[C@@H](C)C(=O)N[C@@H]([C@@H](C)O)C(=O)N1)[C@@H](C)O)C(=O)N1CCC[C@H]1C(=O)N[C@@H](CO)C(=O)N[C@@H](CO)C(=O)N[C@H](C(=O)N[C@@H](CC(N)=O)C(=O)N[C@H](C(=O)NCC(=O)N[C@@H](Cc1c[nH]cn1)C(=O)N[C@@H](CC(N)=O)C(=O)N[C@H](C(=O)N[C@@H](Cc1ccc(O)cc1)C(N)=O)[C@@H](C)O)C(C)C)[C@@H](C)O
notes: Synthetic acylated analogue of human amylin; also called compound 87
- Ratio hCT/hAmylin funct. [1]: 3.8
- hCTR funct. EC50 (pM) [1]: 1100 pM

B2: N^ε1N^ε1-[(4S)-4-carboxy-4-(19-carboxynonadecanoylamino)butanoyl]-[His14,Arg17,Pro21,Pro27,Pro34]-h-amylin (peptide)
peptide: K([γGlu-C20 diacid])CNTATCATQRLAHFLRHSSPNFGAIPSSTNVGPNTY-NH2
modifications: disulfide 2-7; N-terminus assumed
SMILES: CC[C@H](C)[C@H](NC(=O)[C@H](C)NC(=O)CNC(=O)[C@H](Cc1ccccc1)NC(=O)[C@H](CC(N)=O)NC(=O)[C@@H]1CCCN1C(=O)[C@H](CO)NC(=O)[C@H](CO)NC(=O)[C@H](Cc1c[nH]cn1)NC(=O)[C@H](CCCNC(=N)N)NC(=O)[C@H](CC(C)C)NC(=O)[C@H](Cc1ccccc1)NC(=O)[C@H](Cc1c[nH]cn1)NC(=O)[C@H](C)NC(=O)[C@H](CC(C)C)NC(=O)[C@H](CCCNC(=N)N)NC(=O)[C@H](CCC(N)=O)NC(=O)[C@@H](NC(=O)[C@H](C)NC(=O)[C@@H]1CSSC[C@H](NC(=O)[C@@H](N)CCCCNC(=O)CC[C@H](NC(=O)CCCCCCCCCCCCCCCCCCC(=O)O)C(=O)O)C(=O)N[C@@H](CC(N)=O)C(=O)N[C@@H]([C@@H](C)O)C(=O)N[C@@H](C)C(=O)N[C@@H]([C@@H](C)O)C(=O)N1)[C@@H](C)O)C(=O)N1CCC[C@H]1C(=O)N[C@@H](CO)C(=O)N[C@@H](CO)C(=O)N[C@H](C(=O)N[C@@H](CC(N)=O)C(=O)N[C@H](C(=O)NCC(=O)N1CCC[C@H]1C(=O)N[C@@H](CC(N)=O)C(=O)N[C@H](C(=O)N[C@@H](Cc1ccc(O)cc1)C(N)=O)[C@@H](C)O)C(C)C)[C@@H](C)O
notes: Synthetic acylated analogue of human amylin; also called compound 67
- Ratio hCT/hAmylin funct. [1]: 5.2
- hCTR funct. EC50 (pM) [1]: 354 pM

B3: N^ε1-[2-[2-[2-[[2-[2-[2-[[(4S)-4-carboxy-4-(19-carboxynonadecanoylamino)butanoyl]amino]ethoxy]ethoxy]acetyl]amino]ethoxy]ethoxy]acetyl]-[Arg17,Pro21,Pro27,Arg34 … (peptide)
peptide: K([AEEA-AEEA-γGlu-C20 diacid])CNTATCATQRLANFLRHSSPNFGAIPSSTNVGRNTY-NH2
modifications: disulfide 2-7; N-terminus assumed
SMILES: CC[C@H](C)[C@H](NC(=O)[C@H](C)NC(=O)CNC(=O)[C@H](Cc1ccccc1)NC(=O)[C@H](CC(N)=O)NC(=O)[C@@H]1CCCN1C(=O)[C@H](CO)NC(=O)[C@H](CO)NC(=O)[C@H](Cc1c[nH]cn1)NC(=O)[C@H](CCCNC(=N)N)NC(=O)[C@H](CC(C)C)NC(=O)[C@H](Cc1ccccc1)NC(=O)[C@H](CC(N)=O)NC(=O)[C@H](C)NC(=O)[C@H](CC(C)C)NC(=O)[C@H](CCCNC(=N)N)NC(=O)[C@H](CCC(N)=O)NC(=O)[C@@H](NC(=O)[C@H](C)NC(=O)[C@@H]1CSSC[C@H](NC(=O)[C@@H](N)CCCCNC(=O)COCCOCCNC(=O)COCCOCCNC(=O)CC[C@H](NC(=O)CCCCCCCCCCCCCCCCCCC(=O)O)C(=O)O)C(=O)N[C@@H](CC(N)=O)C(=O)N[C@@H]([C@@H](C)O)C(=O)N[C@@H](C)C(=O)N[C@@H]([C@@H](C)O)C(=O)N1)[C@@H](C)O)C(=O)N1CCC[C@H]1C(=O)N[C@@H](CO)C(=O)N[C@@H](CO)C(=O)N[C@H](C(=O)N[C@@H](CC(N)=O)C(=O)N[C@H](C(=O)NCC(=O)N[C@@H](CCCNC(=N)N)C(=O)N[C@@H](CC(N)=O)C(=O)N[C@H](C(=O)N[C@@H](Cc1ccc(O)cc1)C(N)=O)[C@@H](C)O)C(C)C)[C@@H](C)O
notes: also called compound 95
- IC50 [2]: 0.967 nM
- IC50 [3]: 61.3 nM
- Ratio hCT/hAmylin binding [4]: 63.4

B4: N^ε1-[(4S)-4-carboxy-4-(19-carboxynonadecanoylamino)butanoyl]-[Arg14,Arg17,Pro21,Pro27]-h-amylin (peptide)
peptide: K([γGlu-C20 diacid])CNTATCATQRLARFLRHSSPNFGAIPSSTNVGSNTY-NH2
modifications: disulfide 2-7; N-terminus assumed
SMILES: CC[C@H](C)[C@H](NC(=O)[C@H](C)NC(=O)CNC(=O)[C@H](Cc1ccccc1)NC(=O)[C@H](CC(N)=O)NC(=O)[C@@H]1CCCN1C(=O)[C@H](CO)NC(=O)[C@H](CO)NC(=O)[C@H](Cc1c[nH]cn1)NC(=O)[C@H](CCCNC(=N)N)NC(=O)[C@H](CC(C)C)NC(=O)[C@H](Cc1ccccc1)NC(=O)[C@H](CCCNC(=N)N)NC(=O)[C@H](C)NC(=O)[C@H](CC(C)C)NC(=O)[C@H](CCCNC(=N)N)NC(=O)[C@H](CCC(N)=O)NC(=O)[C@@H](NC(=O)[C@H](C)NC(=O)[C@@H]1CSSC[C@H](NC(=O)[C@@H](N)CCCCNC(=O)CC[C@H](NC(=O)CCCCCCCCCCCCCCCCCCC(=O)O)C(=O)O)C(=O)N[C@@H](CC(N)=O)C(=O)N[C@@H]([C@@H](C)O)C(=O)N[C@@H](C)C(=O)N[C@@H]([C@@H](C)O)C(=O)N1)[C@@H](C)O)C(=O)N1CCC[C@H]1C(=O)N[C@@H](CO)C(=O)N[C@@H](CO)C(=O)N[C@H](C(=O)N[C@@H](CC(N)=O)C(=O)N[C@H](C(=O)NCC(=O)N[C@@H](CO)C(=O)N[C@@H](CC(N)=O)C(=O)N[C@H](C(=O)N[C@@H](Cc1ccc(O)cc1)C(N)=O)[C@@H](C)O)C(C)C)[C@@H](C)O
notes: also called compound 83
- IC50 [2]: 0.939 nM
- IC50 [3]: 137 nM
- Ratio hCT/hAmylin binding [4]: 146
